From article PMC3653949, “Dissection of Agonistic and Blocking Effects of CD200 Receptor Antibodies” (PLoS ONE, 2013)

Target: T1, CD200R(1)-rCD4d3+4 (extracellular domains of mouse CD200R allele 1 fused to rat CD4 domains 3 and 4) (mouse, UniProt Q9ES57 26-238, biotin at the biotinylation site)
T1 construct: mouse CD200R, allele CD200R(1) of C57BL/6 mice, the two extracellular domains; also called mCD200R; CD200R(1) rCD4d3+d4; source: 293T cells, transfected (pEF-BOS), tissue culture supernatant concentrated and biotinylated
T1 sequence (looked up): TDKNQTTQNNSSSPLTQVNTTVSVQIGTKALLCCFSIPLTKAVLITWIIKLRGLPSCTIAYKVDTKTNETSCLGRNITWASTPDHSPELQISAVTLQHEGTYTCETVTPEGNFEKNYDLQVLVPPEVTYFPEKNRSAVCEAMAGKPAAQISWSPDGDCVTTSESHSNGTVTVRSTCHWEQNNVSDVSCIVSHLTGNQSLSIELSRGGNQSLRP
Experiment: SPR; biotinylated CD200R(1)-rCD4d3+4, CD200R(2)-rCD4d3+4 and rCD4d3+4 from tissue culture supernatants immobilized on streptavidin coupled CM5 chip (726, 704, 681 RU); purified, gel filtered CD200-rCD4d3+4 (0.75 µM) passed over; BIAcore 3000, 25°C
Conditions: both partners purified

binding result: binds
B1: mouse CD200-rCD4d3+4 (extracellular domains of mouse CD200 fused to rat CD4 domains 3 and 4) (ligand, UniProt O54901 31-232, looked up)
chain: QVEVVTQDERKALHTTASLRCSLKTSQEPLIVTWQKKKAVSPENMVTYSKTHGVVIQPAYKDRINVTELGLWNSSITFWNTTLEDEGCYMCLFNTFGSQKVSGTACLTLYVQPIVHLHYNYFEDHLNITCSATARPAPAISWKGTGTGIENSTESHFHSNGTTSVTSILRVKDPKTQVGKEVICQVLYLGNVIDYKQSLDKG
modifications: biotin at the biotinylation site (form put on streptavidin coated fluorescent beads)
notes: mouse CD200, extracellular domains; also called soluble CD200; soluble purified CD200; source: 293T cells, transfected (pEF-BOS), tissue culture supernatant concentrated and biotinylated (on beads); purified and gel filtered (SPR)
